Test [1] has as its target α-synuclein-YFP fusion protein (recombinant) (UniProt P37840). The test can be described thus: FRET or BRET.
Test [2] addresses α-synuclein-YFP transgene product in C. elegans (UniProt P37840). Put plainly: FRET or BRET. A general note: Bioluminescence resonance energy transfer reports proximity on the nanometre scale.

Consider “α-synuclein-YFP fusion protein (recombinant) (from UniProt P37840 1-140) (natural protein)”, for which, in test [1], the mean YFP fluorescence lifetime in cells, day 4 was found to be 1480 ps and the mean YFP fluorescence lifetime, day 4 (oligomeric species) came to 2960 ps.

“α-synuclein-YFP transgene product in C. elegans (from UniProt P37840 1-140) (natural protein)” returned a decrease of mean YFP fluorescence lifetime during ageing in test [2] of 130 ps.

For the origin of these results see paper PMC5402868.
